Experiment: label from the status in PepcDB records

Sequence | protein production
MFESLGFEETTAKEISVLLGLSLGVLFGLLAERTRFCFRRAVVGEDARQAAGVWFTALAVAILGTQASVASGLIGFADHRLLSSDLPVLAVVLGGLMFGAGMVLTRGCISRLTVLGGTGNLRALTVLLVFAVVAHAMLKGVLAPLRTSLGAVTVDLGETVSLAALPGGAALWTALLALASLLIAARSGNRALPLLGAALIGLLVPLGWVGTGYVLFDEFDPITMESLSFTAPAADTLFYTIASTSIAPGFGTGLVGGVLLGALAAALLFGSFRWQSFDSPRQTGRYLAGATLMGMGGVLAGGCTLGAGLAGIPTLSLAALLALTAIALGARLTDAALNAASSGSAGYPATPGQQPAE | failed
AQSDGWSPKDHNLIKSVREDGRFLSSYGVVHAMLRNTEPRYAFHRDFSPKEFRKWQKGLRHAMEEIMKFPQIKNSPAPVCIKREQREGYRLEKWEFYPLPKCVSTFLVLIPDNINKPVPAILCIPGSGGNKEGLAGEPGIAPKLNDRYKDPKLTQALNFVKEGYIAVAVDNPAAGEASDLERYTLGSNYDYDVVSRYLLELGWSYLGYASYLDMQVLNWMKTQKHIRKDRIVVSGFSLGTEPMMVLGTLDTSIYAFVYNDFLCQTQERAEVMTMPDKNGRRPFPNSIRHLIPDFWKNFNFPDIVAALAPRPIILTEGGLDRDLDLVRKAYAIVGTPDNVKIYHYKKFSDPDTRKNVEYLPEGLDRNEYFRMVNVDGPNHYFKSELVVPWLRKLLEER | not failed
MVPLESSTLFGVYGGFTDSMMMRETTTNNQDPSGDTCSVSDPAPGSTDYYNISSSPVKDDGTAPKNDVVCSINVDDNKDKSWLRLGIGPEENTDGSYKLQRCCSKNGSGRENSLELSLFSSSSTAVSSSIDHLPTQPLQLPYHHDQLLTMRGPSLVYNHQLMKPQTLLNRGFSFPSSKPWIPQYMAPFRPSSLSDRDVTNNNSLSRSCCVDEGGAGPSSEFRVLDPPRRPHSGLWFLLQASQFQ | failed
TNLAALSLDSLVAPDTPIQFDIISPVCEDQPGQAKAFGQGGRRTNPFGESGGSTKSETEDSILHQLFIVRFLGSMEVKSDDHPDVVYETMRQILAARAIHNIFRMTESHLLVTCDCLKLIDPQTQVTRLTFPLPCVVLYATHQENKRLFGFVLRTSSGRSESNLSSVCYIFESNNEGEKICDSVGLAKQIAL | failed
MKIAIAGAGAMGSRLGIMLHQGGNDVTLIDQWPAHIEAIRKNGLIADFNGEEVVANLPIFSPEEIDHQNEQVDLIIALTKAQQLDAMFKAIQPMITEKTYVLCLLNGLGHEDVLEKYVPKENILVGITMWTAGLEGPGRVKLLGDGEIELENIDPSGKKFALEVVDVFQKAGLNPSYSSNVRYSIWRKACVNGTLNGLCTILDCNIAEFGALPVSESLVKTLISEFAAVAEKEAIYLDQAEVYTHIVQTYDPNGIGLHYPSMYQDLIKNHRLTEIDYINGAVWRKGQKYNVATPFCAMLTQLVHGKEELLGAK | not failed
MVMMSKQLTAQAPVDPIVLGKMGSSYGIRGWLRVFSSTEDAESIFDYQPWFIQKAGQWQQVQLESWKHHNQDMIIKLKGVDDRDAANLLTNCEIVVDSSQLPQLEEGDYYWKDLMGCQVVTTEGYDLGKVVDMMETGSNDVLVIKANLKDAFGIKERLVPFLDGQVIKKVDLTTRSIEVDWDPGFLEHHHHHH | failed
MLIYNLAIHSYLGCDSLALLPKANTLSKEKNINNADDTIKDQILASIDSFIYTKDLSGKYTYANQAVLDLFEKNLADVIGFDDTHFFDLALSKQLKANDRMVMDQVIRIENEESNFIRAKNETRIFKVVKKPLFDHLGNVNGICGISTDITVEKQLQEQVNEQSYLLETMLNNIDAHIYVKDCERTFLYVNNRVAELFGDKAENIIGKKDTDILPKEIAEHFYQSDKQVFETNQKQVIEETTHGENGDNCHYISTKVPFDRPDKLPALIGFSTDVTELFKLKEEFKLLANTDPLTNLYNRRFFIEQAEKEYQRAKRYSLSMTLISIDIDHFKSINDQFGHPAGDQVLIEIAKQLKASLRQTDILARIGGEEFSILLPETSAMSAMTFAERIKEEQSRLIITGDWQGEINLSVSIGVSSLIASDKAFDVLFSRADKALYQAKNTGRNTVCYL | failed
MTYNKIMSAAESMEDGIEDMENNLESWGDDMNEYFGDEYEKAETISLDGIKNFFLKAEVGEVKIEISDRADEASYKIQRINPKYFDVEKKGDTISFEDNTPSKFFKNLGFNFKNNSPKIYISLPRNIVFNNFEIKSGVGELDIHDINVEKFNLSAGVGEVNIYDAKISKDAEIKAGVGEVNFKDSTVTNMDIKSGVGSFSFSGTALGKTSVKGGIGEVDLKINGSEKDYDFDVSAGLGEVIINGKKSKTFLADRQKSGSIAQNSITVKGGIGSISIRFKNLEHHHHHH | failed
MVLIALLIALSVERLYHSPAFLHWSFFLERWQHWSAARLTNEKWKSEPLQLVRLLVPALAVGFLVVLLDNLMVTFIVSILSLLLAMNCEPARKSYKAYLKAANRGDEQQVNEHQHALTEFAGQHQPKQLSDSLIWINYRQYIAVMFYFVLFGSFGALVYASLRYAEKQISEPESTKLWQQFMWFADWVPARLAGFGLLIVGHFSRAFPVWVKHSLNPQADPDKLLFNVASKAEDIPQHPDDRTEHIACQLRLMRRQQIFWVCVIAALTLTGWVN | failed
MRKNILITGVHGYIGNALKDKLIEQGHQVDQINVRNQLWKSTSFKDYDVLIHTAALVHNNSPQARLSDYMQVNMLLTKQLAQKAKAEDVKQFIFMSTMAVYGKEGHVGKSDQVDTQTPMNPTTNYGISKKFAEQALQELISDSFKVAIVRPPMIYGAHCPGNFQRLMQLSKRLPIIPNINNQRSALYIKHLTAFIDQLISLEVTGVYHPQDSFYFDTSSVMYEIRRQSHRKTVLINMPSMLNKYFNKLSVFRKLFGNLIYSNTLYENNNALEIIPGKMSLVIADIMDETTTKDKA | failed
MKTYALVMAGGRGERLWPLSREDRPKPFLPLFEGKTLLEATLERLAPLVPPERTLLAVRRDQEAVARPYADGIRLLLEPLGRDTAGAVLLGVAEALKEGAERLLVLPADHYVGDDEAYREALATMLEAAEEGFVVALGLRPTRPETEYGYIRLGPREGAWYRGEGFVEKPSYAEALEYIRKGYVWNGGVFAFAPATMAELFRRHLPSHHEALERLLAGASLEEVYAGLPKISIDYGVMEKAERVRVVLGRFPWDDVGNWRALERVFSQDPHENVVLGEGRHVALDTFGCVVYADRGVVATLGVSGLVVAKVGDEVLVVPKDWAREVREVVKRLEAQE | not failed
MRVGALDVGEARIGLAVGEEGVPLASGRGYLVRKTLEEDVEALLDFVRREGLGKLVVGLPLRTDLKESAQAGKVLPLVEALRARGVEVELWDERFTTKLAQERLKHAPKRLRRDKGKLDELAAVVLLEDYLARGI | not failed
MDKSIIQLVDELPSDNITVKVLNALDYVAPGQWQNLVGFDNTIRAVTGETDARVIQKIRDRATSLYNDPQQGYQSAVKLYQTIDKADTAMATAALANKVGEKIGFLSFLSNITPKADVTQSIDLVSKIAIEIIVFCKLNGIPQPNPQEFANSLANNYQDASLIRMVALVCLDGILPLGPDFLSKIQGIISGAESNSITQNPVFLAVNSSLPGSNPTDKLGFINQGFNAVQGWMNNLVTKTGITPQSISSHLGNFIQIADDNLDFVAAFLDQTTNYFEHTGIQSVARRLILKAHTLVKEEIKQETTQPIQDSSSAVKSDTSQYAVSKKIEVWDEEEEDWYQATIEKVQDDQFFINYIGYGSSHNEWVGKDDIRATDYASSDANGYAVGKKVKCWSDEEETWYTATIEKIQGNQYFIHYTGYDSSYDEWVNSDDIS | failed
MDLRAIAMGLAFAFMWSSAFSSARIIVADASPLFSLACRFLISGLLGVIIARAMGQTWRLTRNQWKATIVFGICQNALYLGLNFYAMQTVEASVAAIIASTMPLLVALASWGLFGERLPALGIAGLLAGFLGVALIMGARIGAGVDLFGVLLCGLGALALAAATLALRGATSGGNFMMVVGLQMLVGSAVLFLATPIFETVHVTPTLPLALAFAYTTLVPGLTATFVWVLLLNRIGAIRAATFHFLNPVFGVAIAAALLGERLGALDAIGVAITTAGILAVQLSRQASARKP | failed
MKELSLFLQNRSVRRVGVFILIAFVLYLLRSQMNIILLTFIFSYLITRLENFILRRISIYRQIIVLLLYVLIAAVIIFVFVKYIPVLADQINQLVKFGNTFLTTDSNNDFINYIVSLANQFDIMKYTEQGVSMILTYLTNVGTVLMNVFIALMLSLFFSLGKEHLVSFTNQFSTSKIGFIYEEVKFFGSKFVATFGKVIEAQFIIALVNAILTTIALWILGFPQLMTLSIMVFLLGLIPVAGVIISLVPLTIIGYSIGGVEYIFYILVVVIIIHALESYVLNPKLMSAKTNLPVFYTFIILIFGEHFFGIWGLIVGIPVVMFFLDVLGVTNQEEIEQPKDTISHT | failed
KNIEETELVVEEMLEQYPNGKIVRLLFHGEQAKLPIISHIVQEYQVEVSIIQGNIQQTKQGAVGSLYIQLLGEEQNILAAIEGLRKLRVETEVIGNE | not failed
MILAILQARMSSTRLPGKVLMPLQRQPMIVRQIERVARSKRIDKLVVATSDRPEDDAIEAAVRREGIAVFRGSLDNVQQRFIGALDAHPADHVVRLTADCPLADPTLIDATIDLCLSKGADYVSNTPEGHAHPKGTDVEVMTAAALRRAAAEATTKEAFEHVTWDLWNQPQRWTCAWLPCFPDQGAVRWTVDRPDDYAFVAAVYDALYPANRAFTSDDIRAFVAGRPDLQDYGGDRRALEHHHHHH | failed
INKIENYEQSTSQLREEINALYNQVIEVGQALSKQRRIVARELRDHIVSEIQNLQMKDANLEISFKKLEEPNIDGIEFVEFLISPNKGEPLKSLNKIASGGELSRIMLALKSIFVKSRGQTAILFDEVDSGVSGQAAQKMAEKMRDIAEYIQVICISHLPQVASMSDHHLLI | failed
SVQEAPAALPTEPGPSPVPAFLGKLWALVGDPGTDHLIRWSPSGTSFLVSDQSRFAKEVLPQYFKHSNMASFVRQLNMYGFRKVVSIEQGGLLRPERDHVEFQHPSFVRGREQLLERVRRKVPALRGDDGRWRPEDLGRLLGEVQALRGVQESTEARLRELRQQNEILWREVVTLRQSHGQQHRVIGKLIQCLFGPLQAGPSNAGGKRKLSLMLDEGSSCPTPAKFNTCPLPGALLQDPYFIQSPLPETNLGLSPHRARGPIISDIPEDSPSPEGTRLSPSSDGRREKGLALLKEEPASPGGDGEAGLALAPNECDFCVTAPPPLPVAVVQAILEGKGSFSPEGPRNAQQPEPGDPREIPDRGPLGLESGDRSPESLLPPMLLQPPQESVEPAGPLDVLGPSLQGREWTLMDLDMELSLMQPLVPERGEPELAVKGLNSPSPGKDPTLGAPLLLDVQAALGGPALGLPGALTIYSTPESRTASYLGPEASPSP | not failed
MMIHMEYYLVVSTIMMFAGIYGFFTRRNTLAILISVELMLNATDINFAVFNRFLFPGELEGYFFALFSIAISAAETAIAIAIMINIYRNIRSIQVKNLDELKW | failed
MAMNLRKNQAPLYIKVHEIDNTAIIVNDGGLPKGTVFSCGLVLEEDVPQGHKVALTDLNQGDEIVRYGEVIGFADETIKRGSWIREALVRMPAP | failed
MVTIPIFLIIIGATMAVVVWSAKRTKSAADFYTAGGGITGTQNGWAIAGDYMSAASFLGISGMISLYGYDGFMYSVGWLVAYITVLLIVAEPCRNAGKYTLGDILSFRTEPKVVRAVCAISVVAVSTFYLTAQMVGAGKLMQLLLGIPYKFAIIGVGILMVGYVVFGGMTATTWVQIIKAGLLMTGAGLLSVLVGLKAGMNPFTFFNDIATNPNIIEHVQKAVLKDPVAVAGFDYGQRFLEPGLFLKNPLDQISLGMALVLGTAGMPHILMRFFTVPTAQAARKSVIVAMFIIGSFYILTTLLGFGAAIHVTPQGITAVDKGGNMAAMMLAQQLGGDISPFLGDLLLAFLCAVAFATILAVVSGLVLAASAAIAHDIYVNVIKDGHADQHEQVMAARITSLCVGAMGIIIGIAAEKQNVAHLVALAFAVASSGNLPVVVMSLFWRKFNTAGVVSGLVVGTVASIALVMVSPNMTYPKVVAADAQKVVTKLEEKQAGGAVLTEKEMKDLDKAKADYAKNKDGKSMLGLDKPLIKLKNPGIISIPLGFLAAIIGCLAFPSRRSEEMFDEIYVRQNTGIGMAKAIDH | failed

— a protein production outcome set (Wang et al. 2014)
